Test results published in US20250361525, “AAV VECTORS FOR GENE EDITING” (Scribe Therapeutics Inc., published 2025).
Positions count from the first letter of the chain named.

T1: CasX variant 515 (synthetic construct)
T1 chain: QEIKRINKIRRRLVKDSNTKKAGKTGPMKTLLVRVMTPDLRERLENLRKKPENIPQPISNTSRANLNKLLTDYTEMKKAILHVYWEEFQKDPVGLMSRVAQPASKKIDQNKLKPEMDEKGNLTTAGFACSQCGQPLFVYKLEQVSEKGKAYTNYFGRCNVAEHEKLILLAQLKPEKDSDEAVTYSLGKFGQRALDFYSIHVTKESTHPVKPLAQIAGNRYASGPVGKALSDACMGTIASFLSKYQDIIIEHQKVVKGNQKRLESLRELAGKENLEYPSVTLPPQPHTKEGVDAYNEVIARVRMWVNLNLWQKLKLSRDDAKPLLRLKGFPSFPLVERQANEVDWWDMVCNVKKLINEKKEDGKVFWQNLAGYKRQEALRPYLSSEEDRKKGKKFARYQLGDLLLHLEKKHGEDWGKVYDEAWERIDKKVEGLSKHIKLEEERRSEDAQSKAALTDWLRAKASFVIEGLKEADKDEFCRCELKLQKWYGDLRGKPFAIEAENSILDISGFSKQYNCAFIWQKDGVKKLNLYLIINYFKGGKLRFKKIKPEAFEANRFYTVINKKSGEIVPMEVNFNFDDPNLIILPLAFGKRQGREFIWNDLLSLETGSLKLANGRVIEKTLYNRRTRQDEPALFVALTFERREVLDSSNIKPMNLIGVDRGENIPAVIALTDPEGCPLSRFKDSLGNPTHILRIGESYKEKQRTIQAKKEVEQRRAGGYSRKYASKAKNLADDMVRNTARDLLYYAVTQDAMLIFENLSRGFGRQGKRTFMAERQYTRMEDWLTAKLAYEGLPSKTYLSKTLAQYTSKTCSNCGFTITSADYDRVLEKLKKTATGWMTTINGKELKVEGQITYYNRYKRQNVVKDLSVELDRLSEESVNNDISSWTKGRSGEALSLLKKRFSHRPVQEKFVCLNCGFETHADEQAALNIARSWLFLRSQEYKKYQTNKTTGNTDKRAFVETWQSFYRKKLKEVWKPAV

B1: sgRNA 2.7.37 ; 7.37 target (ssRNA ; dsDNA)
RNA: UACUGGCGCUUUUAUCUCAUUACUUUGAGAGCCAUCACCAGCGACUAUGUCGUAUGGGUAAAGCGCUUAUUUAUCGGAGAGAAAUCCGAUAAAUAAGAAGCAUCAAAGGGCCGAGAUGUCUCGCUCCG
DNA 1: TGAAGCTGACAGCATTCGGGCCGAGATGTCTCGCTCCGTGGCCTTAGCTGTGCTCGCGCT
DNA 2: AGCGCGAGCACAGCTAAGGCCACGGAGCGAGACATCTCGGCCCGAATGCTGTCAGCTTCA
modifications: 5' amino modifier C6
B2: sgRNA 316.7.37 ; 7.37 target (ssRNA ; dsDNA)
RNA: ACUGGCGCUUCUAUCUGAUUACUCUGAGCGCCAUCACCAGCGACUAUGUCGUAGUGGGUAAAGCUCCCUCUUCGGAGGGAGCAUCAGAGGGCCGAGAUGUCUCGCUCCG
DNA 1: B1 DNA 1
DNA 2: B1 DNA 2
modifications: 5' amino modifier C6
B3: sgRNA 174.7.37 ; 7.37 target (ssRNA ; dsDNA)
RNA: B2 RNA with C11U, C24U, C29A, G87A
DNA 1: B1 DNA 1
DNA 2: B1 DNA 2
modifications: 5' amino modifier C6
B4: sgRNA 235.7.37 ; 7.37 target (ssRNA ; dsDNA)
RNA: ACUGGCGCUUCUAUCUGAUUACUCUGAGCGCCAUCACCAGCGACUAUGUCGUAGUGGGUAAAGCCGCUUACGGACUUCGGUCCGUAAGAGGCAUCAGAGGGCCGAGAUGUCUCGCUCCG
DNA 1: B1 DNA 1
DNA 2: B1 DNA 2
modifications: 5' amino modifier C6
B5: sgRNA 2.7.9 ; 7.9 target (ssRNA ; dsDNA)
RNA: UACUGGCGCUUUUAUCUCAUUACUUUGAGAGCCAUCACCAGCGACUAUGUCGUAUGGGUAAAGCGCUUAUUUAUCGGAGAGAAAUCCGAUAAAUAAGAAGCAUCAAAGGUGUAGUACAAGAGAUAGAA
DNA 1: TTTCAGTGGGGGTGAATTCAGTGTAGTACAAGAGATAGAAAGACCAGTCCTTGCTGAAAG
DNA 2: CTTTCAGCAAGGACTGGTCTTTCTATCTCTTGTACTACACTGAATTCACCCCCACTGAAA
modifications: 5' amino modifier C6
B6: sgRNA 316.7.9 ; 7.9 target (ssRNA ; dsDNA)
RNA: ACUGGCGCUUCUAUCUGAUUACUCUGAGCGCCAUCACCAGCGACUAUGUCGUAGUGGGUAAAGCUCCCUCUUCGGAGGGAGCAUCAGAGGUGUAGUACAAGAGAUAGAA
DNA 1: B5 DNA 1
DNA 2: B5 DNA 2
modifications: 5' amino modifier C6
B7: sgRNA 235.7.9 ; 7.9 target (ssRNA ; dsDNA)
RNA: ACUGGCGCUUCUAUCUGAUUACUCUGAGCGCCAUCACCAGCGACUAUGUCGUAGUGGGUAAAGCCGCUUACGGACUUCGGUCCGUAAGAGGCAUCAGAGGUGUAGUACAAGAGAUAGAA
DNA 1: B5 DNA 1
DNA 2: B5 DNA 2
modifications: 5' amino modifier C6
B8: sgRNA 174.7.9 ; 7.9 target (ssRNA ; dsDNA)
RNA: B6 RNA with C11U, C24U, C29A, G87A
DNA 1: B5 DNA 1
DNA 2: B5 DNA 2
modifications: 5' amino modifier C6

Molecular target: T1, CasX variant 515
Assay: cleavage_in_vitro

Point of comparison: B7, activity 0.17 s⁻¹. Against it:
- B1 — 8.3-fold lower, 0.0204 s⁻¹
- B2 — 2-fold lower, 0.0851 s⁻¹
- B3 — 3.2-fold lower, 0.0534 s⁻¹
- B4 — 2.6-fold lower, 0.0647 s⁻¹
- B5 — within 1.5-fold, 0.135 s⁻¹
- B6 — within 1.5-fold, 0.141 s⁻¹
- B8 — within 1.5-fold, 0.172 s⁻¹
